Values of other authors in paper PMC7337057.

Experiments:
[1] = biological target: Glu118 (UniProt position 118, WFVGREQERRG); experiment: NMR (solid-state); conditions: not stated for this study (around 0 °C is stated for related SSNMR work from the same laboratory); 0.2 μM K+; K+ titrated at constant pH and ionic strength (value not stated); low ambient K+ (0.2 μM): K+-apo, collapsed selectivity filter, pH gate favoured open
[2] = biological target: Glu120 (UniProt position 120, VGREQERRGHF); experiment: NMR (solid-state); conditions: not stated for this study (around 0 °C is stated for related SSNMR work from the same laboratory); 0.2 μM K+; K+ titrated at constant pH and ionic strength (value not stated); low ambient K+ (0.2 μM): K+-apo, collapsed selectivity filter, pH gate favoured open

For “KcsA potassium channel (pH-gated K+ channel) (Streptomyces lividans)”, the pKa [1] is given as “above 7.5” and the pKa [2] is given as “above 7.5”.
